Substitutions are numbered along the chain they refer to. Names and notes keep the numbering of the source. Where two headings read alike, the source gives them in different places. Blank lines part the entries; values can stand above or below the molecule they belong to.
How the values were obtained:
[1] = biological target: RPRD1B coiled-coil domain (human) (UniProt Q9NQG5); experiment: AUC
[2] = biological target: RPRD1B coiled-coil domain (human) (UniProt Q9NQG5); experiment: AUC; remark: listed apart in the source
RPAP2 [3] = experiment: In vitro phosphatase ELISA on biotinylated CTD peptides; format: biochemical, human; conditions: Supplementary Fig. 4d
[4] = biological target: RPRD2 CTD interaction domain (CID), residues 15-161 (human) (UniProt Q5VT52); experiment: ITC
[5] = biological target: RPRD1B CTD interaction domain (CID), residues 2-135 (human) (UniProt Q9NQG5); experiment: ITC
[6] = biological target: RPRD1A CTD interaction domain (CID), residues 2-137 (human) (UniProt Q96P16); experiment: ITC
[7] = biological target: RPRD1B coiled-coil domain (solution experiments) (human) (UniProt Q9NQG5); experiment: AUC
RPAP2 (1-334) = experiment: In vitro DiFMUP phosphatase assay; format: biochemical, human; conditions: 10 μM DiFMUP, 50 mM 3,3-dimethylglutaric acid pH 6.5, 37°C, fluorescence every 20 min for 2 hours
RPAP2 [8] = experiment: Phosphatase assay with pNPP substrate; format: biochemical, human; conditions: unpublished data
RPRD2 CID = biological target: T1, RPRD2 CID (Homo sapiens, UniProt Q5VT52); experiment: ITC binding of CTD peptides to RPRD2 CID; conditions: ratio of Kd values of Table 1
T1 sequence (Q5VT52 15-161): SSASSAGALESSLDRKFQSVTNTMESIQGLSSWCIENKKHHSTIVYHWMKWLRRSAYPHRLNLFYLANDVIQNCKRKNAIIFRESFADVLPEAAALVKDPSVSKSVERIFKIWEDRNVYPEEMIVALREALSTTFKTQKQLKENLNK

RPRD1B CID = biological target: T2, RPRD1B CID (Homo sapiens, UniProt Q9NQG5); experiment: ITC binding of CTD peptides to RPRD1B CID; conditions: ratio of Kd values of Table 1
T2 sequence (Q9NQG5 2-135): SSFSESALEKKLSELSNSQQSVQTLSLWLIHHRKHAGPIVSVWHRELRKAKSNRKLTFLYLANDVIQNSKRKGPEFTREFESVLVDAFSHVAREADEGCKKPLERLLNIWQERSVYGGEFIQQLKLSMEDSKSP

RPRD1A CID = biological target: T3, RPRD1A CID (Homo sapiens, UniProt Q96P16); experiment: ITC binding of CTD peptides to RPRD1A CID; conditions: ratio of Kd values of Table 1
T3 sequence (Q96P16 2-137): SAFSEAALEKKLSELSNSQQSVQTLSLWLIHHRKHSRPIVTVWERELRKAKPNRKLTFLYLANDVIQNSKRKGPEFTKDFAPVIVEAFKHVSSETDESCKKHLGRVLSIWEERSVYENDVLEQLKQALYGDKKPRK

RPRD1A CID R106A = biological target: T4, RPRD1A CID R106A (human, UniProt Q96P16 2-137, R106A); experiment: ITC
T4 sequence: T3 sequence (Q96P16 2-137) with R105A

stoichiometry N [1]: 2 | stoichiometry N [2]: 2
Molecule: RPRD1B coiled-coil domain (from UniProt Q9NQG5 137-326) (domain or fragment)

Molecule: [O]=[V]([O-])([O-])[O-] [vanadate]
inhibition of RPRD1A-dependent S5 dephosphorylation by RPAP2 (RPAP2 [3]): inhibited

Kd [4]: > 1000 µM | Kd [5]: > 1000 µM | Kd [6]: > 1000 µM
Molecule: S2,5P CTD peptide

percent dimer [7]: 89.6%
Molecule: RPRD1B coiled-coil domain (solution experiments) (from UniProt Q9NQG5 137-326) (domain or fragment)

Molecule: Cc1cc(=O)oc2c(F)c(OP(=O)(O)O)c(F)cc12 [DiFMUP, 6,8-difluoro-4-methylumbelliferyl phosphate]
dephosphorylation of the substrate by RPAP2 (1-334) (RPAP2 (1-334)): dephosphorylated DiFMUP in a time- and dose-dependent manner

fold increase of affinity compared to S2P alone [5]: 2.6 fold | fold increase of affinity compared to S2P alone [6]: 1.6 fold
Molecule: S2,7P CTD peptide

Kd [4]: > 1000 µM | Kd [5]: > 1000 µM | Kd [6]: > 1000 µM
Molecule: S5P CTD peptide

Kd [4]: > 1000 µM | Kd [5]: > 1000 µM | Kd [6]: > 1000 µM
Molecule: S5,7P CTD peptide

phosphatase activity of RPAP2 on the substrate (RPAP2 [8]): No measurable phosphatase activity
Molecule: O=[N+]([O-])c1ccc(OP(=O)(O)O)cc1 [pNPP, para-nitrophenylphosphate]

Molecule: C[C@@H](O)[C@H](NC(=O)[C@@H]1CCCN1C(=O)[C@H](COP(=O)(O)O)NC(=O)[C@H](Cc1ccc(O)cc1)NC(=O)[C@H](COP(=O)(O)O)NC(=O)[C@@H]1CCCN1C(=O)[C@H](CO)NC(=O)[C@@H](NC(=O)[C@@H]1CCCN1C(=O)[C@H](COP(=O)(O)O)NC(=O)[C@H](Cc1ccc(O)cc1)NC(=O)[C@H](CO)NC(=O)[C@@H]1CCCN1C(=O)[C@@H](N)CO)[C@@H](C)O)C(=O)N[C@@H](CO)C(=O)N1CCC[C@H]1C(=O)N[C@@H](COP(=O)(O)O)C(=O)N[C@@H](Cc1ccc(O)cc1)C(=O)N[C@@H](CO)C(=O)O [S2,7P CTD]
fold increase of RPRD2 CID affinity compared to S2P CTD (RPRD2 CID): remained unchanged | fold increase of RPRD1B CID affinity compared to S2P CTD (RPRD1B CID): 2.6 fold | fold increase of RPRD1A CID affinity compared to S2P CTD (RPRD1A CID): 1.6 fold

fold reduction of binding against wild type (RPRD1A CID R106A): ~27 fold
B1: 19-mer S2P CTD peptide (peptide)
peptide: SPSYSPTSPSYSPTSPSYS
